Assay results as given in patent publication EP1574569A1, “THREE-DIMENSIONAL STRUCTURE OF LIPOCALIN-TYPE PROSTAGLANDIN D SYNTHASE AND UTILIZATION OF THE SAME” (RIKEN, priority 2002, dated 2004).
Numbering of substitutions follows the chain as printed. Numbers in names are those of the source.

B1: mouse L-PGDS, Wild Type(C65), Cys^89,186Ala construct, SEQ ID NO:1 (Mus musculus; C186A/C89A) (protein)
chain: QGHDTVQPNFQQDKFLGRWYSAGLASNSSWFREKKAVLYMCKTVVAPSTEGGLNLTSTFLRKNQAETKIMVLQPAGAPGHYTYSSPHSGSIHSVSVVEANYDEYALLFSRGTKGPGQDFRMATLYSRTQTLKDELKEKFTTFSKAQGLTEEDIVFLPQPDKAIQE
B2: mouse L-PGDS mutant F83I (Phe^83Ile) in Cys^89,186Ala construct (Mus musculus; C186A/C89A/F83I) (protein)
chain: B1 chain with F59I
B3: mouse L-PGDS mutant T147A (Thr^147Ala) in Cys^89,186Ala construct (Mus musculus; C186A/C89A/T147A) (protein)
chain: B1 chain with T123A
B4: mouse L-PGDS mutant K92E (Lys^92Glu) in Cys^89,186Ala construct (Mus musculus; C186A/C89A/K92E) (protein)
chain: B1 chain with K68E
B5: mouse L-PGDS mutant S45A (Ser^45Ala) in Cys^89,186Ala construct (Mus musculus; C186A/C89A/S45A) (protein)
chain: B1 chain with S21A
B6: mouse L-PGDS mutant S81A (Ser^81Ala) in Cys^89,186Ala construct (Mus musculus; C186A/C89A/S81A) (protein)
chain: B1 chain with S57A
B7: mouse L-PGDS mutant R85E (Arg^85Glu) in Cys^89,186Ala construct (Mus musculus; C186A/C89A/R85E) (protein)
chain: B1 chain with R61E

Legend:
[1] = system: human cerebellum medulloblast (TE671) expressing L-PGDS; test: Inhibition of A23187-stimulated PGD2 production from cells expressing L-PGDS (EIA); type: cell-based; conditions: TE-671 cells, A23187 5 µM, compound added 15 minutes before stimulation, medium recovered 15 minutes after
Method: TE-671 is seeded on microplate at the density of 1×10^7. The cells were stimulated by A231875 (5 µ M) to cause PGD2 production. […] The culture medium was recovered 15 minutes after A23187 stimulation to quantify the PGD2 concentration in the culture medium by enzyme immunoassay (EIA).

[2] = target: hematopoietic PGD Synthase (H-PGDS) (Homo sapiens, UniProt O60760); test: Inhibition of hematopoietic PGD synthase enzyme activity ([1-14C]PGH2 to PGD2, thin layer chromatography); type: biochemical; conditions: 3 to 300 µM; PGH2 40 µM, 0.1 mM GSH, 25°C, 30 seconds
Sequence of hematopoietic PGD Synthase (H-PGDS) (O60760 whole entry, species assumed): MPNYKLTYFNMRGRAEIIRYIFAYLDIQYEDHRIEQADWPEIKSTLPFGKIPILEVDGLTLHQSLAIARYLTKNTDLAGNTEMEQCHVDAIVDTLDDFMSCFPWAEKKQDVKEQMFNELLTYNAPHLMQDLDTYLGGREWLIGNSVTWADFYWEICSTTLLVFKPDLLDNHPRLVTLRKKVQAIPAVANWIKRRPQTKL
Method: In the measurement of hematopoietic PGD Synthase (H-PGDS), [1-^14C] PGH2 (40µM) as substrate is reacted in the presence of 0.1 M Tris-HCl (pH 8.0) and 0.1 mM GSH (reduced glutathione) at 25°C for 30 seconds.
After the completion of the reaction, the reaction liquid was subjected to thin layer chromatography to isolate and quantify PGD2 to calculate enzyme activity.

H-PGDS = H-PGDS (Homo sapiens, UniProt O60760); test: Affinity of H-PGDS to PGD2; type: binding
Sequence of H-PGDS (O60760 whole entry, species assumed): as above

[3] = target: T1, L-PGDS mutant Cys^89,186Ala (Mus musculus, UniProt O09114, C186A/C89A); test: Binding of prostaglandins to L-PGDS by surface plasmon resonance (BiaCore 2000); conditions: for binding to L-PGDS (in words): 10 µM (Figure 7)
T1 construct: GST (N, cleaved yes); made in house; host or cells: Escherichia coli DH5α
T1 sequence (O09114 25-189 C89A/C186A): B1 chain
Method: L-PGDS can act as a PGD2 transporter protein. […] That is, L-PGDS act as a PGD2 synthesis enzyme coupled with COX in cells and thereafter as an extracellular transporter of PGD2.
The binding of PGD2, PGE2 or PGF2α to L-PGDS was analyzed with BiaCore 2000 system (BiaCore, Uppsala, Sweden) using the surface plasmon resonance method. L-PGDS mutant Cys^89,186Ala was immobilized on CM5 sensor chip (BIAcore AB) coated with carboxymethyldextran. Binding assay was carried out at a constant flow rate of 30µ l/min. in the concentration range of 0.1 to 10 µ M in both the binding phase and the dissociation phase. After each assay, the sensor chip surface was regenerated with 15 µ l of 1.5 M urea. Rate constant values were calculated using analysis soft wear BIA Evaluation 3.0 soft wear after subtracting control surface (bovine serum albumin) using Langmuir 1: 1 binding model by four independent experiments.

L-PGDS = target: T2, L-PGDS (Mus musculus, UniProt O09114); test: Binding of retinoids to L-PGDS
T2 sequence (O09114 25-189): B1 chain with A65C, A162C

[4] = substrate: [H][C@]12C[C@]([H])(OO1)[C@H](C/C=C\CCCC(=O)O)[C@H]2/C=C/[C@@H](O)CCCCC; test: PGDS activity kinetics of L-PGDS mutants; type: biochemical, mouse; conditions: other: Km for PGH2, pH=8.0, 25.0 °C
From the text: Since the preparation of recombinant protein having the same PGDS activity as purified wild-type enzyme is easy, Cys^89,186Ala construct was used for this purpose. Various mutants were expressed, purified to homogeneity and L-PGDS activities were compared at pH 8, 9 and 10 (Figure 8) .
After a candidate compound of L-PGDS inhibitor is selected, it is preferably contacted with the enzyme in the presence of the substrate (prostaglandin H2) to confirm an ability of the compound to inhibit the enzyme (see, for example, Shimizu, t., Yamamoto, S., and Hayaishi O. (1979), Purification and Properties of prostaglandin D synthase from rat brain, J. Biol. Chem., 254:5222-5228). The enzyme activity can be measured, for example, as follows:
The substrate [1-^14C]prostaglandin (PG)H2 is synthesized by reacting [1^-14C]arachidonic acid with cyclooxygenase. Since PGH2 is easily decomposed in an aqueous solution (half life: about 5 minutes), it is evaporated to dryness and stored at low temperature(-80°C). The enzyme reaction is performed by injecting 1 µL of PGH2 solution(acetone or non-volatile diethylenediglycohol solution) with a microsyringe to 49 µ L of 0.1 M phosphate buffer (pH8.0) containing 1 mM dithiothreitol (DTT) and the enzyme. After the reaction at 25 °C for 30 to 60 seconds, the reaction is quenched by the addition of 300 µL of ice-cold mixed solution of ether/methanol/0.1 M citric acid (30:4:1 v/v/v) followed by extraction the substrate and reaction product under acidic condition into ether layer. Subsequently, anhydrous sodium sulfate was added to dehydrate it. An aliquot of organic layer (about 50 µ L) is coated on silica gel thin layer in a low temperature room (4°C) and subjected to silica gel thin layer chromatography in a freezer (-20 °C) (developing solvent: ether/methanol/acetic acid (90:2:1 v/v/v) . After the development, radioactivity of PGD2 fraction and fraction other than it are measured to calculate an enzyme activity based on the conversion ratio to PGD2.
The site-specific mutagenesis was performed using a Quick change site-directed mutagenesis kit (Stratgene, Heiderberg, Germany). The DNA sequence was confirmed by the determination of cycle sequencing by a SequiTherm cycle sequencing kit (Epicentre Technologies, Madison, WI) followed by LI-COR model 4000L automatic DNA sequencer (LI-COR Inc., Lincoln, NE)

| Molecule | Km [4] [µM] | kcat/Km [4] [µM^-1Min^-1] | other results |
| --- | --- | --- | --- |
| C1=Cc2ccccc2C(=C2CCN(CCCCc3nn[nH]n3)CC2)c2ccccc21 [AT-56, 4-dibenzo(a,d)cyclohepten-5-ylidene-1-(4-(2H-tetrazole-5-yl)butyl)piperidine] | – | – | inhibition of PGD2 production by A23187 stimulation (in words) [1]: dose-dependently inhibited; inhibition of H-PGDS (in words) [2]: does not inhibit |
| CCCCC[C@H](O)/C=C/[C@H]1C(=O)C[C@H](O)[C@@H]1C/C=C\CCCC(=O)O [PGD2] | – | – | affinity of H-PGDS to PGD2 (in words) (H-PGDS): does not show high affinity; kon ([3]; Langmuir 1:1 binding model): 1.24x10^3 ± 37 M^-1sec^-1; Kd ([3]; Langmuir 1:1 binding model, four independent experiments): 89.4 ± 3.4 nM |
| CCCCC[C@H](O)/C=C/[C@H]1[C@H](O)CC(=O)[C@@H]1C/C=C\CCCC(=O)O [PGE2] | – | – | binding to L-PGDS (in words) [3]: Neither PGE2 nor PGF2α is bound |
| CC1=C(/C=C/C(C)=C/C=C/C(C)=C/C=O)C(C)(C)CCC1 [retinal] | – | – | binding to L-PGDS (in words) (L-PGDS): binds |
| CCCCC[C@H](O)/C=C/[C@@H]1[C@@H](C/C=C\CCCC(=O)O)[C@@H](O)C[C@H]1O [PGF2α] | – | – | binding to L-PGDS (in words) [3]: Neither PGE2 nor PGF2α is bound |
| B1 | 13 | 2.38 | – |
| B2 | 15 | 4.47 | – |
| B3 | 19 | 0.95 | – |
| B4 | 14 | 5.71 | – |
| B5 | 11 | – | – |
| B6 | 12 | 0.50 | – |
| B7 | 7 | 4.86 | – |
